According to patent US20150232562A1 (Ablynx, published 2015):

Molecular target: T1, recombinant human ErbB2/Fc chimera (human, UniProt P04626 23-652)
T1 construct: bought from R&D Systems; also called rhErbB2-Fc; rhErb2-Fc; Fc part of the bought chimera not given; not described
Assay: ELISA, coated ErbB2/Fc

Row | Binder | binding result
1 | 15A6 (VHH, C-term myc-His6 tag) VHH: EVQLVESGGGLVQAGGSLRLSCVTSRRPASTRTMAWYRQAPGKQRDWVATISSHGLPVYADSVKGRFTVSRDNANNTVYLQMNTLKPEDTAVYYCRDVNADYWGQGTQVTVSS | binds
2 | 17C5 (VHH, C-term myc-His6 tag) VHH: EVQLVESGGGLVQAGGSLRLSCVTSRRPASTRTMAWYRQAPGKQRDWVATISSHGLPVYADSVKGRFTVSRDNANNTVYLQMNTLKPEDTAVYYCRDVNADYWGQGTPVTVSS | binds
3 | 15C2 (VHH, C-term myc-His6 tag) VHH: EVQLVESGGGLVQAGGSLRLSCVTSRRPASTRTMAWYRQAQGKQRDWVATISSHGLPVYADSVKGRFTVSRDNANNTVYLQMNTLKPEDTAVYYCRDVNADYWGQGTQVTVSS | binds
4 | 17C3 (VHH, C-term myc-His6 tag) VHH: EVQLVESGGGLVQAGGSLRLSCAANGLTFRRYDMGWYRQAPGQQREWVAAISGAGDINYADSVKGRFTMARDNANHTVHLQMNSLKPEDTAVYYCNANWKMLLGVENDYWGQGTQVTVSS | binds
5 | 17C2 (VHH, C-term myc-His6 tag) VHH: EVQLVESGGGLVQPGGSLRLSCAASGFAFSSYAMSWVRQAPGKGLEWVSAVDSGGGRTDYAHSVKGRFTISRDNAKNTLYLQMSSLKPEDTALYYCTKHVSDSDYTEYDYWGQGTQVTVSS | binds
6 | 27A5 (VHH, C-term myc-His6 tag) VHH: EVQLVESGGGLVQAGGSLNLSCVASGIPFSTRTMAWYRQPPGNERDWVATIRSGAPVYADSVKGRFTVSRDNAKNTLYLQMNSLEPEDTATYYCWDVNGDIWGQGTPVTVSS | binds
7 | 14A1 (VHH, C-term myc-His6 tag) VHH: EVQLVESGGGSVQAGGSLRLSCAASERTFSSYGMGWFRQAPGKEREFVATINWSGVTAYADSVKGRFTISRDNAKKTVYLQMNSLKPEDTAVYYCAAEPYGSGSSLMSEYDYWGHGTQVTVSS | binds
8 | 14A2 (VHH, C-term myc-His6 tag) VHH: EVQLVESGGGLVQAGGSLRLSCAASERTFSSYGMGWFRQAPGKEREFVATINWSGVTAYADSVKGRFTISRDNAKKTVYLQMNSLKPEDTAVYYCAAEPYGSGSSLISEYDYWGHGTQVTVSS | binds
9 | 14B10 (VHH, C-term myc-His6 tag) VHH: EVQLVESGGGLVQAGGSLRLSCAVNSRTFSSYGMGWFRQAPGKEREFVATINWSGVTAYADSIKGRFTISRDNAKETVYLQMNSLKPDDTGVYYCAAETYGSGSSLMSEYDYWGQGTQVTVSS | binds
10 | 14B4 (VHH, C-term myc-His6 tag) VHH: EVQLVESGGGLVQAGGSLRLSCAVSSRAFSSYGMGWFRQAPGKDREFVATINWSGVTAYADSIKGRFTISRDNAKETVYLQMNSLKPEDTGVYYCAAETYGSGSSLMSEYDYWGQGTQVTVSS | binds
11 | 14B3 (VHH, C-term myc-His6 tag) VHH: EVQLVESGGGLVQPGGSLTLSCVASEGTFSSYGMGWFRQAPGKERAFVATINWSGVNAYADSVKGRFTISRDNAKKTAYLQMNSLKPEDTAVYYCAAETYGSGSSLMNEYDYWGQGTQVTVSS | binds
12 | 14A12 (VHH, C-term myc-His6 tag) VHH: EVQLVKSGGGLVQAGGSLRLSCAASERTFSSYGMGWFRQAPGKEREFVATINWSGVTAYADSVKGRFTISRDNAKKTVYLQMNSLKPEDTAVYYCAAEPYGSGSSLISEYDYWGHGTQVTVSS | binds
13 | 13A4 (VHH, C-term myc-His6 tag) VHH: EVQLVESGGGLVQAGGSLRLSCVASKMTFMRYTMGWYRQAPGKQRDLVASIDSSGGTNYADSVKGRFTISRDNAKNTVYLEMNSLKPEDTGVYYCNGRWDIVGAIWWGQGTQVTVSS | binds
14 | 17B6 (VHH, C-term myc-His6 tag) VHH: EVQLVESGGGLVQPGGSLRLSCAASRIPFSTRTMAWYRQAPGKQRDWVATIGTSGPPRYADSVKGRFTVSRDNAKNTVYLQMNSLKAEDTAVYYCWDVNADYWGQGTQVTVSS | binds
15 | 27G5 (VHH, C-term myc-His6 tag) VHH: EVQLVESGGGLVQPGGSLRLSCVASRIPASIRTMAWYRQTPGNQRDWLATIGSSGTPAYADSVKGRFTVSRDNAKNTVYLQMNSLKPEDTAVYYCRDVNGDYWGQGTQVTVSS | binds
16 | 15D8 (VHH, C-term myc-His6 tag) VHH: EVQLVESGGGLVQPGGSLKLSCVASTIPASIRTMAWYRQTPGNQRDWLATIGSSGTPAYADSVKGRFTVSRDNAKNTVYLQMNSLKPEDTAVYYCRDVNGDYWGQGTQVTVSS | binds

Further lines, results first:

Row | binding result | Binder
17 | binds | 46D3 (VHH, C-term myc-His6 tag) VHH: KVQLVESGGGLVQAGGSLRLSCAASGRTFTEYSMGWFRQAPGKEREFVATISWNYGYTYYSDSVKGRFTVSRDIAENTVYLQMNTLKSEDTAVYYCAAKIGWLSIRGDEYEYWGQGTQVTVSS
18 | binds | 14C6 (VHH, C-term myc-His6 tag) VHH: EVQLVESGGGSVQAGGSLRLSCVASEGTFSSYGMGWFRQAPGKERAFVATINWSGVTAYADSVKGRFTISRDNAKKTVYLQMNSLKPEDTAVYYCATDTYGSGSSLMNEYDYWGQGTQVTVSS
19 | binds | 14C1 (VHH, C-term myc-His6 tag) VHH: EVQLVESGGGSVQAGGSLRLSCAASGSTFSSYGMGWFRQAPGKERAFVATINWSGVTAYADSVKGRFTISRDNAKKTVYLQMNSLKPEDTAVYYCATETYGSGSSLMNEYDYWGQGTQVTVSS
20 | binds | 14A4 (VHH, C-term myc-His6 tag) VHH: EVQLVESGGGSVQAGSSLTLSCVASEGTFSSYGMGWFRQAPGKERAFVATINWSGVNAYADSVKGRFTISRDNAKKTAYLQMNSLKPEDTAVYYCAAETYGSGSSLMNEYDYWGQGTQVTVSS
21 | binds | 14C11 (VHH, C-term myc-His6 tag) VHH: EVQLVESGGGLVQAGGSLRLSCAVNSRTFSSYGMGWFRQAPGKEREFVATINWSGATAYADSIKGRFTISRDNAKETVYLQMNSLKPDDTGVYYCAAETYGSGSSLMSEYDYWGQGTQVTVSS
22 | binds | 14B11 (VHH, C-term myc-His6 tag) VHH: EVQLVESGGGLVQAGGSLRLSCAASGSTFSSYGMGWFRQVPGKEREFVATINWSGVTAYADSVKGRFTISRDNAKKTVYLQMNSLKPEDTARYYCGVETYGSGSSLMTEYDYWGQGTQVTVSS
23 | binds | 27H4 (VHH, C-term myc-His6 tag) VHH: EVQLVESGGGLVQAGGSLRLSCVASKMTFMRYTMGWYRQAPGKQRDLVASIDASGGTNYADSVKGRFTISRDNAKNTVYLEMNSLKPEDTGVYYCNGRWDIVGAIWWGQGTQVTVSS
24 | binds | 13A9 (VHH, C-term myc-His6 tag) VHH: EVQLVESGGGLVQAGGSLRLSCVASRIPASIRTMAWYRQAPGKQRDWVATIGTGGTPAYADSFKGRFTVSRDNANHTVYLQMNSLKPEDTAVYYCRDVNGDYWGQGTQVTVSS
